Columns and labels:
[1] = molecular target: salivary agglutinin (SAG) glycoprotein complex (UniProt Q9UGM3); experiment: single-molecule force spectroscopy
[2] = molecular target: fibronectin from human plasma (human); experiment: single-molecule force spectroscopy
[3] = molecular target: salivary agglutinin (SAG) glycoprotein complex (UniProt Q9UGM3); experiment: single-cell force spectroscopy

Sequence of UniProt Q9UGM3 (Q9UGM3 whole entry, looked up, one chain of several): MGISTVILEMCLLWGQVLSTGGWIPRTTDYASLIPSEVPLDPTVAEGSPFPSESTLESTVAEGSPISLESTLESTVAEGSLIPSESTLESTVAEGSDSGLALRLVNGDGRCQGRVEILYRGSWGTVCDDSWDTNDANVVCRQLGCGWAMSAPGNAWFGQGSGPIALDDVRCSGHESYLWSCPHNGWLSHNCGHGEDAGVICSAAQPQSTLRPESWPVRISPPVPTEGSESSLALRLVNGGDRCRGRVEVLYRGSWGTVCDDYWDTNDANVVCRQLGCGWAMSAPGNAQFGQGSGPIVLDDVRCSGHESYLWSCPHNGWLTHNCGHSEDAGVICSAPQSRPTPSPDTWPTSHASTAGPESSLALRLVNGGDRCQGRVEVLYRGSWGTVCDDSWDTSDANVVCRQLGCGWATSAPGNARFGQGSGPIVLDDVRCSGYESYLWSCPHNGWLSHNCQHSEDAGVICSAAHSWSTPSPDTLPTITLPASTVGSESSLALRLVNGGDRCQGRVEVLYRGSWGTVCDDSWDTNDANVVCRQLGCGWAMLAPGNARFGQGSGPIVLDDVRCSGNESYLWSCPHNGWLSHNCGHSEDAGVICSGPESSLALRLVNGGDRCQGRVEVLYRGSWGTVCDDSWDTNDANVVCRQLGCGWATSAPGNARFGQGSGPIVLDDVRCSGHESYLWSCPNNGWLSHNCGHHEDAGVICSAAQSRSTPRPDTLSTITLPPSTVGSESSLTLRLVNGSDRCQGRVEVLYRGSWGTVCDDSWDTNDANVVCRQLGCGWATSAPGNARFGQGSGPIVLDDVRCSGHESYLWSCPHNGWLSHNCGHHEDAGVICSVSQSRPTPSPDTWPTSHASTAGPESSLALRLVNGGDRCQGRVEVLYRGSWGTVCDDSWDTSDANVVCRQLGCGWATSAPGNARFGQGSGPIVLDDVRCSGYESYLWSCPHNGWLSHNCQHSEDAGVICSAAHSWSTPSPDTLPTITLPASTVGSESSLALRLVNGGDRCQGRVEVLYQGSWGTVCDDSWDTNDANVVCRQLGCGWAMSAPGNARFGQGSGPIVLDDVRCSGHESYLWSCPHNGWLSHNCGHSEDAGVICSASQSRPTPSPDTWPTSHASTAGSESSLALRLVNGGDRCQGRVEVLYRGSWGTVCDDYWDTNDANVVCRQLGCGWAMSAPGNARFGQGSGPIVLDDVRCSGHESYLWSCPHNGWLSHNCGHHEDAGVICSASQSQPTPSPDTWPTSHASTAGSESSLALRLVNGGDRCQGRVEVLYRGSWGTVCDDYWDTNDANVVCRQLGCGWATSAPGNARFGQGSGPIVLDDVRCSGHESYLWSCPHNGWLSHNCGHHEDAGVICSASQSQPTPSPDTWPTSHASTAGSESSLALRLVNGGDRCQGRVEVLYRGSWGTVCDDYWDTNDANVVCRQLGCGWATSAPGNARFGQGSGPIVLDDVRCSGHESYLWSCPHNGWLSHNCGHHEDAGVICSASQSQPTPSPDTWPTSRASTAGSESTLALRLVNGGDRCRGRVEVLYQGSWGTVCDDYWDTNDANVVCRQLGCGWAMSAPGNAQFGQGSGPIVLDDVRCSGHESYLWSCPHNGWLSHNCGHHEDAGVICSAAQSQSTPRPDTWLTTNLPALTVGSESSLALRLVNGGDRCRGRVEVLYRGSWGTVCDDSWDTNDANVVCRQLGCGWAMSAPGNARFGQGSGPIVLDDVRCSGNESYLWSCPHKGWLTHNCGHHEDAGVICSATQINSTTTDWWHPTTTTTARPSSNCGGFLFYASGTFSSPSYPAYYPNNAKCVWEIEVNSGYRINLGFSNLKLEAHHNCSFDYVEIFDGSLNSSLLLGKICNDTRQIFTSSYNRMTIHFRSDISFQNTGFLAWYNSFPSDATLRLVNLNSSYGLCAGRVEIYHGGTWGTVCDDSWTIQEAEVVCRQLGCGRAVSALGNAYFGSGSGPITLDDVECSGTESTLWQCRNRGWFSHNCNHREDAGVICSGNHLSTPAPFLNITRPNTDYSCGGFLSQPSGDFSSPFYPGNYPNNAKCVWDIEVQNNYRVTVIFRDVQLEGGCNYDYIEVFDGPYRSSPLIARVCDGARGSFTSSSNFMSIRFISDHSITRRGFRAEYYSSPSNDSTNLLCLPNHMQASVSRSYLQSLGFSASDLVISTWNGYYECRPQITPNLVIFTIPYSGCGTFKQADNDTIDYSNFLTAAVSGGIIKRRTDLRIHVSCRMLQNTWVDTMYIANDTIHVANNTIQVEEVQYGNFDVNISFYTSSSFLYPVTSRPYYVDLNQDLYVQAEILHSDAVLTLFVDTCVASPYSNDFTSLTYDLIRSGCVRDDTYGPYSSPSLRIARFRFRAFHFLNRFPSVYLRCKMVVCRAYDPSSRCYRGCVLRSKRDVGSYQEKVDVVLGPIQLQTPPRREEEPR

“full-length P1 adhesin of Streptococcus mutans (from UniProt P23504 39-1532) (natural protein)” gave a most probable adhesion force [1] of 57 pN and a mean adhesion force [2] of 46 pN.
For “P1 globular head fragment (A3VP1) (domain or fragment)”, the binding frequency [2] was 49%.
In the case of “cell surface-localized P1 on living Streptococcus mutans NG8 cells (from UniProt P23504 39-1532) (natural protein)”, the adhesion force [3] is reported as 100 to 1500 pN.
